target: T1, HLA-A*01 (human); test: UV peptide-exchange ELISA; +++ = yield >50%
T1 construct: MHC monomer made peptide-receptive by UV cleavage of a UV-sensitive ligand; also called peptide-receptive MHC class I monomer
From the text: Candidate peptides for T cell based therapies according to the present invention were further tested for their MHC binding capacity (affinity). The individual peptide-MHC complexes were produced by UV-ligand exchange, where a UV-sensitive peptide is cleaved upon UV-irradiation, and exchanged with the peptide of interest as analyzed. Only peptide candidates that can effectively bind and stabilize the peptide-receptive MHC molecules prevent dissociation of the MHC complexes. To determine the yield of the exchange reaction, an ELISA was performed based on the detection of the light chain (β2m) of stabilized MHC complexes. The assay was performed as generally described in Rodenko et al. (Rodenko et al., 2006).
96 well MAXISorp plates (NUNC) were coated over night with 2 ug/ml streptavidin in PBS at room temperature, washed 4× and blocked for 1 h at 37° C. in 2% BSA containing blocking buffer. […] Peptide-MHC monomers of the UV-exchange reaction were diluted 100-fold in blocking buffer. Samples were incubated for 1 h at 37° C., washed four times, incubated with 2 ug/ml HRP conjugated anti-β2m for 1h at 37° C., washed again and detected with TMB solution that is stopped with […]. Absorption was measured at 450 nm.

For FTEQWTDGY [FTEQWTDGY (SEQ ID NO: 408)], which peptide exchange yield is on record?
The peptide exchange yield was 50 to 75%.

For NVDPVQHTY [NVDPVQHTY (SEQ ID NO: 432)], which peptide exchange yield is on record?
Its peptide exchange yield is 50 to 75%.

LSDPSGPKSY [LSDPSGPKSY (SEQ ID NO: 418)] was tested. Which peptide exchange yield did it give?
Its peptide exchange yield is 50 to 75%.

NLDQATRVAY [NLDQATRVAY (SEQ ID NO: 426)] was tested. Which peptide exchange yield did it give?
The peptide exchange yield was 50 to 75%.

How did the peptide exchange yield turn out when NLDEEKQLLY [NLDEEKQLLY (SEQ ID NO: 424)] was run?
The peptide exchange yield was 50 to 75%.

STDNFNCKY [STDNFNCKY (SEQ ID NO: 438)] was tested. Which peptide exchange yield did it give?
Its peptide exchange yield is 50 to 75%.

KTDESLTKY [KTDESLTKY (SEQ ID NO: 414)] was tested. Which peptide exchange yield did it give?
Its peptide exchange yield is 50 to 75%.

TLDAGKFQIY [TLDAGKFQIY (SEQ ID NO: 439)] was tested. Which peptide exchange yield did it give?
Its peptide exchange yield is 50 to 75%.

How did the peptide exchange yield turn out when LLDPRSYHTY [LLDPRSYHTY (SEQ ID NO: 415)] was run?
Its peptide exchange yield is 50 to 75%.

How did the peptide exchange yield turn out when TLDENPGVRY [TLDENPGVRY (SEQ ID NO: 440)] was run?
Its peptide exchange yield is 50 to 75%.

target: T2, HLA-B*07 (human); test: UV peptide-exchange ELISA; ++++ = yield >75%
T2 construct: MHC monomer made peptide-receptive by UV cleavage of a UV-sensitive ligand; also called peptide-receptive MHC class I monomer

Which peptide exchange yield does the source give for APYKSVTSL [APYKSVTSL (SEQ ID NO: 466)] here?
Its peptide exchange yield is > 75%.

VPTLRSEL [VPTLRSEL (SEQ ID NO: 286)] was tested. Which peptide exchange yield did it give?
Its peptide exchange yield is > 75%.

RPRALRDLQLL [RPRALRDLQLL (SEQ ID NO: 232)] was tested. Which peptide exchange yield did it give?
Its peptide exchange yield is > 75%.

APYRPPDISL [APYRPPDISL (SEQ ID NO: 290)] was tested. Which peptide exchange yield did it give?
Its peptide exchange yield is > 75%.

KPYQGNPTF [KPYQGNPTF (SEQ ID NO: 233)] was tested. Which peptide exchange yield did it give?
The peptide exchange yield was > 75%.

How did the peptide exchange yield turn out when YPRGNHWAVGHL [YPRGNHWAVGHL (SEQ ID NO: 228)] was run?
The peptide exchange yield was > 75%.

With SPRMSGLLSQT [SPRMSGLLSQT (SEQ ID NO: 226)] as the binder, how does the peptide exchange yield read?
Its peptide exchange yield is > 75%.

How did the peptide exchange yield turn out when SPRQPPRLV [SPRQPPRLV (SEQ ID NO: 265)] was run?
Its peptide exchange yield is > 75%.

SPRWLPVSL [SPRWLPVSL (SEQ ID NO: 242)] was tested. Which peptide exchange yield did it give?
The peptide exchange yield was > 75%.

How did the peptide exchange yield turn out when SPNSYFRVL [SPNSYFRVL (SEQ ID NO: 470)] was run?
Its peptide exchange yield is > 75%.

How did the peptide exchange yield turn out when SPQRLRGLL [SPQRLRGLL (SEQ ID NO: 291)] was run?
The peptide exchange yield was > 75%.

Which peptide exchange yield does the source give for NPRATDAQL [NPRATDAQL (SEQ ID NO: 472)] here?
Its peptide exchange yield is > 75%.

With SARLATDAL [SARLATDAL (SEQ ID NO: 241)] as the binder, how does the peptide exchange yield read?
Its peptide exchange yield is > 75%.

Which peptide exchange yield does the source give for RPRSALPRLLLP [RPRSALPRLLLP (SEQ ID NO: 293)] here?
The peptide exchange yield was > 75%.

How did the peptide exchange yield turn out when APRAPRLML [APRAPRLML (SEQ ID NO: 269)] was run?
The peptide exchange yield was > 75%.

For YPLFRGINL [YPLFRGINL (SEQ ID NO: 268)], which peptide exchange yield is on record?
Its peptide exchange yield is > 75%.

LPRGPLASL [LPRGPLASL (SEQ ID NO: 258)] was tested. Which peptide exchange yield did it give?
The peptide exchange yield was > 75%.

Which peptide exchange yield does the source give for MPLLENLYL [MPLLENLYL (SEQ ID NO: 255)] here?
Its peptide exchange yield is > 75%.

With VPENHSVAL [VPENHSVAL (SEQ ID NO: 289)] as the binder, how does the peptide exchange yield read?
Its peptide exchange yield is > 75%.

Which peptide exchange yield does the source give for SPREVTTVL [SPREVTTVL (SEQ ID NO: 240)] here?
The peptide exchange yield was > 75%.

How did the peptide exchange yield turn out when KPFSSFTSM [KPFSSFTSM (SEQ ID NO: 467)] was run?
The peptide exchange yield was > 75%.

Which peptide exchange yield does the source give for RPPAAGLRGISL [RPPAAGLRGISL (SEQ ID NO: 259)] here?
Its peptide exchange yield is > 75%.

Which peptide exchange yield does the source give for NPFPHLITL [NPFPHLITL (SEQ ID NO: 254)] here?
The peptide exchange yield was > 75%.

With VPRSSGQTV [VPRSSGQTV (SEQ ID NO: 251)] as the binder, how does the peptide exchange yield read?
The peptide exchange yield was > 75%.

With LPRALLSSL [LPRALLSSL (SEQ ID NO: 473)] as the binder, how does the peptide exchange yield read?
Its peptide exchange yield is > 75%.

Which peptide exchange yield does the source give for HPAPYGDLL [HPAPYGDLL (SEQ ID NO: 263)] here?
The peptide exchange yield was > 75%.

For YPRPGTPAA [YPRPGTPAA (SEQ ID NO: 464)], which peptide exchange yield is on record?
The peptide exchange yield was > 75%.

For VPRPIFSQL [VPRPIFSQL (SEQ ID NO: 465)], which peptide exchange yield is on record?
Its peptide exchange yield is > 75%.

Which peptide exchange yield does the source give for RPHSLSSEL [RPHSLSSEL (SEQ ID NO: 283)] here?
Its peptide exchange yield is > 75%.

TPLPAVIVL [TPLPAVIVL (SEQ ID NO: 246)] was tested. Which peptide exchange yield did it give?
Its peptide exchange yield is > 75%.

With GPTPNTGAAL [GPTPNTGAAL (SEQ ID NO: 294)] as the binder, how does the peptide exchange yield read?
The peptide exchange yield was > 75%.

Which peptide exchange yield does the source give for RPFHTRATV [RPFHTRATV (SEQ ID NO: 462)] here?
Its peptide exchange yield is > 75%.

How did the peptide exchange yield turn out when RPRALRDLQL [RPRALRDLQL (SEQ ID NO: 231)] was run?
The peptide exchange yield was > 75%.

Which peptide exchange yield does the source give for RVRGGEDGDRAL [RVRGGEDGDRAL (SEQ ID NO: 236)] here?
Its peptide exchange yield is > 75%.

Which peptide exchange yield does the source give for SPRVPSIEL [SPRVPSIEL (SEQ ID NO: 256)] here?
The peptide exchange yield was > 75%.

Which peptide exchange yield does the source give for RPRAPVTPA [RPRAPVTPA (SEQ ID NO: 281)] here?
The peptide exchange yield was > 75%.

Which peptide exchange yield does the source give for KPGPPWAAF [KPGPPWAAF (SEQ ID NO: 238)] here?
Its peptide exchange yield is > 75%.

RPIENRILIL [RPIENRILIL (SEQ ID NO: 243)] was tested. Which peptide exchange yield did it give?
The peptide exchange yield was > 75%.

How did the peptide exchange yield turn out when YPRGNHWAVGH [YPRGNHWAVGH (SEQ ID NO: 227)] was run?
Its peptide exchange yield is > 75%.

How did the peptide exchange yield turn out when MPLKHYLLL [MPLKHYLLL (SEQ ID NO: 235)] was run?
The peptide exchange yield was > 75%.

MPMAGDMNGL [MPMAGDMNGL (SEQ ID NO: 460)] was tested. Which peptide exchange yield did it give?
The peptide exchange yield was > 75%.

With SPRDFLSGL [SPRDFLSGL (SEQ ID NO: 250)] as the binder, how does the peptide exchange yield read?
Its peptide exchange yield is > 75%.

Which peptide exchange yield does the source give for FPYVRDFVM [FPYVRDFVM (SEQ ID NO: 244)] here?
Its peptide exchange yield is > 75%.

With LPRIPFADV [LPRIPFADV (SEQ ID NO: 257)] as the binder, how does the peptide exchange yield read?
Its peptide exchange yield is > 75%.

Which peptide exchange yield does the source give for SPDIRNTTV [SPDIRNTTV (SEQ ID NO: 252)] here?
The peptide exchange yield was > 75%.

How did the peptide exchange yield turn out when TPKAGPTL [TPKAGPTL (SEQ ID NO: 463)] was run?
The peptide exchange yield was > 75%.

How did the peptide exchange yield turn out when RAKNAGVTI [RAKNAGVTI (SEQ ID NO: 234)] was run?
Its peptide exchange yield is > 75%.

How did the peptide exchange yield turn out when SPMYGQAGL [SPMYGQAGL (SEQ ID NO: 468)] was run?
The peptide exchange yield was > 75%.

How did the peptide exchange yield turn out when KPRPDVTNEL [KPRPDVTNEL (SEQ ID NO: 471)] was run?
Its peptide exchange yield is > 75%.

For FPSFLTNSL [FPSFLTNSL (SEQ ID NO: 285)], which peptide exchange yield is on record?
Its peptide exchange yield is > 75%.

Which peptide exchange yield does the source give for APGPRFLVT [APGPRFLVT (SEQ ID NO: 270)] here?
The peptide exchange yield was > 75%.

VPSSRILQL [VPSSRILQL (SEQ ID NO: 249)] was tested. Which peptide exchange yield did it give?
The peptide exchange yield was > 75%.

For MPLPWSLALPL [MPLPWSLALPL (SEQ ID NO: 272)], which peptide exchange yield is on record?
The peptide exchange yield was > 75%.

How did the peptide exchange yield turn out when IPNWARQDL [IPNWARQDL (SEQ ID NO: 248)] was run?
Its peptide exchange yield is > 75%.

With YVPSASLFML [YVPSASLFML (SEQ ID NO: 239)] as the binder, how does the peptide exchange yield read?
The peptide exchange yield was > 75%.

For LPRLLPAL [LPRLLPAL (SEQ ID NO: 474)], which peptide exchange yield is on record?
Its peptide exchange yield is > 75%.

How did the peptide exchange yield turn out when RPHKPGLYL [RPHKPGLYL (SEQ ID NO: 475)] was run?
Its peptide exchange yield is > 75%.

For KPEGTRIAV [KPEGTRIAV (SEQ ID NO: 295)], which peptide exchange yield is on record?
Its peptide exchange yield is > 75%.

Reference: patent US11352401
